Laboratory results: patent US6210671A, “Humanized antibodies reactive with L-selectin” (Protein Design Labs, Inc., priority 1995, dated 2001)

Key:
[1] = system: rabbit leukocytes; settings: reported in the literature; cited from earlier work
[2] = system: binding of human lymphocytes to peripheral lymph node high endothelial venules; settings: Kishimoto et al.; cited from earlier work
[3] = system: binding of human neutrophils to IL-1 stimulated human umbilical cord endothelial cells (HUVEC); assay: Adhesion of human neutrophils to IL-1 stimulated HUVEC; format: cell-based; settings: HUVEC stimulated with 20 ng/ml IL-1β for 4 hr; 4° C., 30 min
Protocol: FIG. 5A. Binding of human neutrophils to IL-1 stimulated human umbilical cord endothelial cells (HUVEC). The neutrophils were first treated with irrelevant control antibody, mouse DREG-200 antibody, or humanized IgG1 DREG-200 antibody, or left untreated, as indicated.
The ability of the mouse and humanized DREG-200 antibodies to block the adhesion of human neutrophils to endothelial cells was determined using a modification of the assay method of Hallmann et al., Biochem. Biophys. Res. Comm. 174:236 (1991). Specifically, human umbilical cord endothelial cells (HUVEC; from Clonetics, San Diego) were grown to confluence in EGM medium (Clonetics) in Lab-Tek 8-chamber slides (Nunc, Naperville, Ill.). The HUVEC cells were stimulated with 20 ng/ml IL-1β (R&D Systems, Minneapolis, Minn.) for 4 hr before use. Neutrophils were isolated by density gradient centrifugation from buffy coats that had been cleared of erythrocytes by dextran sedimentation, and then adjusted to 10^7 per ml. The neutrophils (100 μl) were pre-incubated for 20 minutes on ice with varying concentrations of antibody (in 100 μl RPMI). The HUVEC slides were washed free of IL-1β and placed on a rotary shaker (100 rpm) at 4° C. […] Neutrophil adherence was quantified by counting the neutrophils attached to a defined area of the endothelial cell monolayer with a microscope.

[4] = system: binding of human neutrophils to stimulated human umbilical vein endothelial cells; settings: Kishimoto et al., Blood 78:805 (1991); cited from earlier work
[5] = system: L-selectin; assay: Competitive binding of mouse and humanized DREG-55 to CHO L-selectin cells; settings: 2 hr at 4° C.
Protocol: FIG. 9: Competitive binding of mouse and humanized DREG-55 antibodies to CHO^L-selectin cells expressing L-selectin. Increasing concentrations of cold competitor antibody were incubated with the cells in the presence of radiolabeled tracer humanized DREG-55 antibody, and the ratio of bound/free radioactivity was determined.
The affinity of the humanized DREG-55 antibody for L-selectin was determined by competition with the radio-iodinated humanized DREG-55 antibody (FIG. 9). Purified humanized DREG-55 antibody was labeled with Na^125 I (Amersham, Arlington Heights, Ill.) using lactoperoxidase to 4 mCi/mg of protein (Marchalonis, Biochem. J. 113, 299 (1969)). CHO^L-selectin cells, which were obtained by transfecting the L-selectin genes into the host CHO cells, were used as a source for L-selectin. […] Cells were then washed and centrifuged, and their radioactivities measured. The ratio of bound and free tracer antibody were calculated. The binding affinities were calculated according to the methods of Berzofsky and Berkower (J. A. Berzofsky and I. J. Berkower, in Fundamental Immunology (ed. W. E. Paul), Raven Press (New York), p. 595 (1984), which is incorporated herein by reference).

[6] = system: binding of human PBMC to peripheral lymph node high endothelial venules; assay: Adhesion of human PBMC to peripheral lymph node high endothelial venules; format: cell-based; settings: frozen sections of mouse peripheral lymph nodes; 25 minutes
Protocol: FIG. 10: Inhibition of binding of human PBMC to peripheral lymph node high endothelial venules by humanized DREG-55 (HuDREG-55) and humanized DREG-200 (HuDREG-200). The average number of cells bound per HEV for each antibody treatment is shown. Error bars show the standard errors of the values calculated for three sections.
Human peripheral blood mononuclear cells were isolated and cultured for 2 days at 37° C. in 10% FBS/DMEM. After washing and resuspending in assay medium (5% FBS/DMEM/10 mM HEPES, pH 6.9) at 7×10^6 /ml in the presence of the indicated concentrations of humanized DREG-55, humanized DREG-200 or negative control antibody, cells were applied to frozen sections of mouse peripheral lymph nodes (PLN) while rotating at 50 rpm (as described in Streeter et al., Cell 107, 1853 (1988)). After 25 minutes, non-adherent cells were gently dumped and adherent cells fixed to sections by immersion in 1.5% glutaraldehyde-PBS. Slides were counterstained with thionine and the number of cells bound to each high endothelial venule (HEV) (n=60) in triplicate sections was determined microscopically. The average number of cells bound per HEV for each treatment was calculated.

[7] = system: human L-selectin; assay: Competitive binding of mouse and humanized DREG-200 antibodies against 125I-labeled mouse DREG-200 on transfected cells; settings: competition with radio-iodinated mouse DREG-200; 1 hr at 4° C.
Protocol: FIG. 4. Competitive binding of mouse and humanized IgG1 and IgG4 DREG-200 antibodies. The target cells were L2-1 cells, a mouse pre-B cell line, that was transfected with a human L-selectin gene and thus expresses human L-selectin (Berg et al., Biochem. Biophys. Res. Comm. 184:1048 (1992)). 5×10^5 cells were incubated with 3 ng of ^125 I-labeled tracer mouse antibody (2 μCi/μg), together with increasing amounts of mouse or humanized competitor antibody as indicated in 0.2 ml of binding buffer (PBS+2% FBS+0.1% azide) for 1 hr at 4° C. Cells were washed and pelleted, and their bound radioactivity measured. The concentrations of bound and free tracer antibody were calculated.
The affinity of the humanized DREG-200 antibodies for L-selectin were determined by competition with the radio-iodinated mouse DREG-200 antibody (FIG. 4). The binding affinities were calculated according to the methods of Berzofsky (J. A. Berzofsky and I. J. Berkower, in Fundamental Immunology (ed. W. E. Paul), Raven Press (New York), 595 (1984), which is incorporated herein by reference in its entirety for all purposes).

[8] = system: cat leukocytes; settings: reported in the literature; cited from earlier work
[9] = system: L-selectin; assay: Flow cytometry binding to L1-2 L-selectin transfectants; settings: 1 hour incubation; FITC-conjugated goat anti-human Ig
Protocol: FIG. 8: Binding of humanized DREG-55 to L1-2^L-selectin transfectants compared to binding of control antibody as analyzed by flow cytometry. Fluorescence intensity is indicated on the x-axis.
After washing, cells were incubated in a 1:250 dilution of FITC-conjugated goat anti-human Ig, washed, then analyzed for fluorescence by flow cytometry (FACS).

Molecule: mouse DREG-200: mouse monoclonal antibody that binds to human L-selectin (Kishimoto et al.); CDR donor [reference compound]
- cross-reactivity with rabbit leukocytes [1]: cross-reactivity
- blocking of binding of human lymphocytes to peripheral lymph node high endothelial venules [2]: partially or completely block
- blocking of binding of neutrophils to HUVEC [3]: effectively blocked
- blocking of binding of human neutrophils to stimulated human umbilical vein endothelial cells [4]: partially or completely block

B1: mouse DREG-55: mouse monoclonal antibody that binds to human L-selectin (Kishimoto et al.); CDR donor (antibody, V domains shown)
VH: MNFGSSLIFLVLVLKGVQCEVKLVESGGGLVKPGGSLKLACAASGFTFSTYAMSWVRQTPEKRLEWVASISTGGSTYYPDSVKGRFTISRDNARNILYLQMSSLRSEDTAMYYCARDYDGYFDYWGQGTTLTVSS
VL: METDTILLWVLLLWVPGSTGDIVLTQSPASLSVSLGERASISCKASQSVDYDGDSYMNWYQQKPGQPPKLLIYAASNLESGIPARFSGSGSGTDFTLNIHPVEEEDAATYYCQQSNEDPWTFGGGTKLEIK
- blocking of binding of human lymphocytes to peripheral lymph node high endothelial venules [2]: partially or completely block
- blocking of binding of human neutrophils to stimulated human umbilical vein endothelial cells [4]: partially or completely block
- affinity for L-selectin compared with humanized DREG-55 [5]: no significant difference

B2: humanized DREG-200: humanized anti-L-selectin antibody, mouse DREG-200 CDRs in human Eu framework, sequences in FIG. 2; isotype not stated at these places (antibody, V domains shown)
VH: MGWSCIILFLVATATGVHSQVQLVQSGAEVKKPGSSVKVSCKASGYTFTSYVMHWVRQAPGQGLEWIGYIYPYNDGTKYNEKFKGRVTITSDESTNTAYMELSSLRSEDTAVYYCAREEYGNYVRYFDVWGQGTLVTVSS
VL: MVFTPQILGLMLFWISASRGDIQMTQSPSTLSASVGDRVTITCKSSQSLLNSSNQKNYLAWYQQKPGKAPKLLVYFASTRESGVPDRFIGSGSGTDFTLTISSLQPEDFATYFCHQHYSTPLTFGQGTKVEVK
- adhesion of human PBMC to lymph node high endothelial venules [6]: block adhesion
- affinity relative to the mouse DREG-200 antibody [7]: ≤ 2 fold
- cross-reactivity with cat leukocytes [8]: cross-reactivity

B3: humanized DREG-55: humanized anti-L-selectin antibody, mouse DREG-55 CDRs in human Gal framework, sequences in FIG. 7 (antibody, V domains shown)
VH: MNFGSSLIFLVLVLKGVQCEVQLVESGGGLVQPGGSLRLSCAASGFTFSTYAMSWVRQAPGKGLEWVASISTGGSTYYPDSVKGRFTISRDNAKNTLYLQMNSLRAEDTAVYYCARDYDGYFDYWGQGTLVTVSS
VL: METDTILLWVLLLWVPGSTGDIQMTQSPSSLSASVGDRVTITCKASQSVDYDGDSYMNWYQQKPGKAPKLLIYAASNLESGIPSRFSGSGSGTDFTLTISSLQPEDFATYYCQQSNEDPWTFGQGTKVEIK
- adhesion of human PBMC to lymph node high endothelial venules [6]: block adhesion
- binding to L1-2 L-selectin transfectants by flow cytometry [9]: reacts
